Assay results reported in patent publication US6977240 (Takeda / Millennium, dated 2005).

Experiments:
[1] = molecular target: human ObR long form, expressed on transfected cells (human) (UniProt P48357); assay: cell-based or functional assay
[2] = molecular target: T1, murine short form ObR (clone famj5312), expressed on COS cells (mouse, UniProt P48356 23-889); assay: 1 nM AP-OB on transfected COS cells; reference human long form ObR; laid to surface expression by the filing
T1 construct: also called mouse ObR; mouse short form
T1 sequence: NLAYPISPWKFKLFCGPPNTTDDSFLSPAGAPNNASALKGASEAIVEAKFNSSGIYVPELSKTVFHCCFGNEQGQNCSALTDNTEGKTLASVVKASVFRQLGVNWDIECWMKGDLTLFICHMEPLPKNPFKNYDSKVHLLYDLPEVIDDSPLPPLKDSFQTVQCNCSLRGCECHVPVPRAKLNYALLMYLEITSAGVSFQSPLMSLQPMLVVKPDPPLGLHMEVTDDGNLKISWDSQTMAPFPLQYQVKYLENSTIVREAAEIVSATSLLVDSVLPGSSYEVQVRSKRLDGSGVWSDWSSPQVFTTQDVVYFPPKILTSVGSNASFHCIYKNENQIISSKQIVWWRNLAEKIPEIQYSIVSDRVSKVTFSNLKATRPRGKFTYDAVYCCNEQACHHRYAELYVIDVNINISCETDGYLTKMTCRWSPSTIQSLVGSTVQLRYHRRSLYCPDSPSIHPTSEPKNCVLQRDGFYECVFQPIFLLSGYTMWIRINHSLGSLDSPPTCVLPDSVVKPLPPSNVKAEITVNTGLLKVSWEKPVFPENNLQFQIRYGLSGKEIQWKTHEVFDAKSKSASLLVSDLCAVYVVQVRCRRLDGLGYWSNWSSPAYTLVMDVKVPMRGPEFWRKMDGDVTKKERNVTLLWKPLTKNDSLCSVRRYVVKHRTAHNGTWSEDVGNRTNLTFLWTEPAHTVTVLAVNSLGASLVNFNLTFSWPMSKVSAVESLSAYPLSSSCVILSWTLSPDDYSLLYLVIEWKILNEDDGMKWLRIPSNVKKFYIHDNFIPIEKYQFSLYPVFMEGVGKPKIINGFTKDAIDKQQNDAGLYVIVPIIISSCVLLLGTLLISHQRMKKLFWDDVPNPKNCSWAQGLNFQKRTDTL
Procedure: COS-1, H-35 and Hep3B cells were transfected with plasmid DNA by the DEAE-dextran method (Lopata et al., 1989, *Nucleic Acids Res.* 12:5707–5717); HepG2 cells by the calcium phosphate method (Graham et al., 1973, *Virology* 52:456–461); and COS-7 cells by the lipofectamine method. Subcultures of COS cells were maintained for 16 hours in serum-free medium prior to the activation of STAT proteins by treatment with cytokines for 15 minutes. DNA binding by STAT proteins was determined by EMSA on whole cell extracts as described in Sadowski et al. (1993, *Science* 26:1739–1744). […] CAT activities were quantitated by testing serial dilutions of cell extracts, normalized to the expression of the cotransfected marker plasmid pIE-MUP (Morella et al., 1995, *J. Biol. Chem.* 270:[…]), and are expressed relative the value of the untreated control cultures in each experimental series (defined as =1.0). Quantitative cell surface binding of the AP-OB fusion protein (Section 6) was done essentially as outlined by Cheng and Flanagan (1994, Cell 79:157–168).
To determine whether ObR has the ability to recruit the cellular signaling machinery, COS cells were transiently transfected with expression vectors for the two representative forms of ObR, mouse short form (also corresponding to a mutated form detected in db/db mice) and human long form. […]

[3] = molecular target: T2, human ObR long form, expressed on transfected cells (human, UniProt P48357 21-1165); assay: Scatchard transformation of AP-OB binding to transfected COS cells
T2 construct: also called human long form; long form of ObR
T2 sequence: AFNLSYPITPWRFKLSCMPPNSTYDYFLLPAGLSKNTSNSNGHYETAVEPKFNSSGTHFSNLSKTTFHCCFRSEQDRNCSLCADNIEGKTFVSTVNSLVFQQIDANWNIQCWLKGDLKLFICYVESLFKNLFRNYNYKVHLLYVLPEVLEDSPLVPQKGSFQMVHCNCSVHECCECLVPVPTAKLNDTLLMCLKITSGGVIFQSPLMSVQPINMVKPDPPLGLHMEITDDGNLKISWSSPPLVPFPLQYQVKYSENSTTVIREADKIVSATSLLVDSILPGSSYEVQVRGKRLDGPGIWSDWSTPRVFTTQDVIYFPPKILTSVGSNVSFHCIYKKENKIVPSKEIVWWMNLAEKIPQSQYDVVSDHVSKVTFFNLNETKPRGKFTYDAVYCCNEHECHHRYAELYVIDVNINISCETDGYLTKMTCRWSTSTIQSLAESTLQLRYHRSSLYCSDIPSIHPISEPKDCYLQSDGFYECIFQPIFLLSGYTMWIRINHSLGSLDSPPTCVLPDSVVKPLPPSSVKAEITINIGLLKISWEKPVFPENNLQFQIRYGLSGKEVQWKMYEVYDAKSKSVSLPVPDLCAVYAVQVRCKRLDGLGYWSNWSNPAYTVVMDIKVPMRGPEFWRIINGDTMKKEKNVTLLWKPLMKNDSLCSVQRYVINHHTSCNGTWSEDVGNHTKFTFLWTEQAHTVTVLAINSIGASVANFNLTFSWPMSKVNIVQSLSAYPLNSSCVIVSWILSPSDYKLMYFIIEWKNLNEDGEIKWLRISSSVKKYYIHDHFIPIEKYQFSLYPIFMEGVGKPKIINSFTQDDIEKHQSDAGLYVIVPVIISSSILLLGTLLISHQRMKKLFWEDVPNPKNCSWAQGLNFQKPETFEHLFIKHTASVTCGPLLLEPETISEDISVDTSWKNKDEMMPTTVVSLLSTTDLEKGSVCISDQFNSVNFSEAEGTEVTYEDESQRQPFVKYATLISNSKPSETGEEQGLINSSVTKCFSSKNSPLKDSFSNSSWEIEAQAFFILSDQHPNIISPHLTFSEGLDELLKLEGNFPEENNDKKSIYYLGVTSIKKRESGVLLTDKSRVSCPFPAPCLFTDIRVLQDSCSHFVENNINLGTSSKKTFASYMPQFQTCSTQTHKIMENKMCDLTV
Procedure: (§1) FIG. 2B-1 Binding isotherm and Scatchard analysis of the interaction of AP-Ob and ObR. COS-7 cells transfected with the obR cDNA were incubated with various concentrations of the AP-Ob (mouse) fusion protein FIG. 2B-2. Scatchard transformation is shown as an inset. Paragraph beginning at page 16, line 3, please replace the paragraph with the following text:
(§2) After transient transfection of the ObR clone into COS cells, strong binding of 1 nM murine AP-Ob is detected (relative to mock transfected COS cells or ObR transfected COS cells incubated with unfused AP) (FIG. 2A). […] A fusion between AP and human Ob also binds mouse ObR with high affinity, as does a fusion protein with mouse leptin at the N-terminus and AP at the C-terminus (Ob-AP).
(§3) To determine whether ObR has the ability to recruit the cellular signaling machinery, COS cells were transiently transfected with expression vectors for the two representative forms of ObR, mouse short form (also corresponding to a mutated form detected in db/db mice) and human long form. Two days after transfection, cells were incubated in 1 nM human or mouse alkaline phosphatase-OB, and cell surface expression of ObR was detected as indicated by specific binding of the alkaline phosphatase-OB (AP-OB) fusion protein.

[4] = molecular target: T1, murine short form ObR (clone famj5312), …; assay: as above
Procedure: as §1, §2, §3

[5] = molecular target: T1, murine short form ObR (clone famj5312), …; assay: AP activity bound to COS cells transfected with the ObR clone
Procedure: (§4) In Situ Fusion Protein Binding. Quartered mouse brains, isolated choroid plexus, cells, and cell lines were rinsed once with HBHA (Hank's balanced salt solution with 0.5 mg/ml BSA, 0.1% NaN_3, 20 mM HEPES [pH 7.0]) in 12-well plates. Tissue was then incubated with tissue culture supernatants containing AP-Ob fusion, Ob-AP fusion, or control supernatants (i.e., supernatants containing unfused AP only, containing AP-OB or OB-AP fusion proteins plus 80-fold molar excess of *E. coli*-derived recombinant OB, or supernatants from mock-transfected COS cells), for 75 minutes with gentle rotation, at room temperature. Samples were then treated as described previously (Cheng, H. J. and Flanagan, J. G., 1994, *Cell* 79:157–168).
as §2

[6] = molecular target: T3, Ob receptor in mouse choroid plexus tissue (mouse, UniProt P48356 23-889); assay: AP staining of quartered mouse brain tissue
T3 construct: Native receptor in quartered mouse brain
T3 sequence: T1 sequence
Procedure: as §4

With “leptin (Section 16, species not stated) (ligand)” the pIL6RE-SEAP reporter activity in 293 cells, 100 ng/ml leptin for 24 hours [1] was 8 fold.

B1: mouse AP-Ob fusion protein (ligand, UniProt P41160 22-167, looked up, not shown: large carriers)
chain: VPIQKVQDDTKTLIKTIVTRINDISHTQSVSAKQRVTGLDFIPGLHPILSLSKMDQTLAVYQQVLTSLPSQNVLQIANDLENLRDLLHLLAFSKSCSLPQTSGLQKPESLDGVLEASLYSTEVVALSRLQGSLQDILQQLDVSPEC
notes: mature; AP at the N-terminus, predicted mature Ob at the C-terminus; used as COS-7 conditioned medium; also called murine AP-Ob; AP-Ob (mouse)
For B1, the “fold binding against the long form” value [2] was about 10 fold, the Kd [3] was 1 nM and the Kd [4] was 0.7 nM.

B2: unfused AP (alkaline phosphatase) (enzyme, UniProt P05187 23-511, looked up)
chain: IIPVEEENPDFWNREAAEALGAAKKLQPAQTAAKNLIIFLGDGMGVSTVTAARILKGQKKDKLGPEIPLAMDRFPYVALSKTYNVDKHVPDSGATATAYLCGVKGNFQTIGLSAAARFNQCNTTRGNEVISVMNRAKKAGKSVGVVTTTRVQHASPAGTYAHTVNRNWYSDADVPASARQEGCQDIATQLISNMDIDVILGGGRKYMFRMGTPDPEYPDDYSQGGTRLDGKNLVQEWLAKRQGARYVWNRTELMQASLDPSVTHLMGLFEPGDMKYEIHRDSTLDPSLMEMTEAALRLLSRNPRGFFLFVEGGRIDHGHHESRAYRALTETIMFDDAIERAGQLTSEEDTLSLVTADHSHVFSFGGYPLRGSSIFGLAPGKARDRKAYTVLLYGNGPGYVLKDGARPDVTESESGSPEYRQQSAVPLDEETHAGEDVAVFARGPQAHLVHGVQEQTFIAHVMAFAACLEPYTACDLAPPAGTTDAAHPG
notes: Control; also called control AP
B2: no binding [5]; no binding [6].
